Results published in patent US5798442A, “Peptidyl derivatives as inhibitors of pro-apoptotic cysteine proteinases” (Merck Frosst Canada, Inc., priority 1995, dated 1998).

Substrate: CC(=O)N[C@@H](CC(=O)O)C(=O)N[C@@H](CCC(=O)O)C(=O)N[C@H](C(=O)N[C@@H](CC(=O)O)C(=O)Nc1ccc2c(C)cc(=O)oc2c1)C(C)C
Test: continuous fluorometric assay with Ac-DEVD-AMC and purified apopain
Format: biochemical, human
Settings: other: purified apopain, 25° C., pH 7.5

B1: apopain/CPP32 (Homo sapiens) (protein)
chain 1: SGISLDNSYKMDYPEMGLCIIINNKNFHKSTGMTSRSGTDVDAANLRETFRNLKYEVRNKNDLTREEIVELMRDVSKEDHSKRSSFVCVLLSHGEEGIIFGTNGPVDLKKITNFFRGDRCRSLTGKPKLFIIQACRGTELDCGIETD
chain 2: SGVDDDMACHKIPVEADFLYAYSTAPGYYSWRNSKDGSWFIQSLCAMLKQYADKLEFMHILTRVNRKVATEFESFSFDATFHAKKQIPCIVSMLTKELYFYH
notes: cleavage between Asp^28 -Ser^29 and Asp^175 -Ser^176; cleavage sites which yield the p17 and p12 subunits from the CPP32 proenzyme; endogenous in cells; host or cells: THP-1 cells (ATCC TIB 202)
Question: With B1 as the protein, how does the Km read?
Answer: The Km was 9.7 ± 1.0 µM.
